Measured values from patent US20210038739A1 (JCR PHARMACEUTICALS, published 2021).

Tests used:
[1] = target: T1, recombinant human TfR extracellular region with N-terminal histidine tag (Sino Biological Inc.) (human, UniProt P02786 89-760); assay: BLI (Octet RED96), His-tagged TfR ECD loaded on Ni-NTA sensor, antibody in solution; human TfR
T1 construct: also called r human TfR; r human TfR-ECD (Histag); not shown: Histidine tag at the N-terminus
Experimental: (§1) Purified anti-hTfR antibody No. 3 was diluted in two steps with HBS-P+ (10 mM HEPES containing 150 mM NaCl, 50 μM EDTA and 0.05% Surfactant P20), respectively, to prepare antibody solutions of 7 different concentrations, 0.78125 to 50 nM (0.117 to 7.5 μg/mL). These antibody solutions were used as sample solutions. The r human and r monkey TfRs were respectively diluted with HBS-P+ to prepare 25 pg/mL solutions, which were used as r human TfR-ECD (Histag) solution and r monkey TfR-ECD (Histag) solution, respectively.
(§2) Each of the sample solutions prepared above by 2-fold dilution steps was added, 200 μL/well, to a 96-well plate, black (Greiner Bio-One Inc.). Each of the r human TfR-ECD (Histag) solution and the r monkey TfR-ECD (Histag) solutions prepared above was added, 200 μL/well, to predetermined wells. To respective wells for baseline, dissociation and washing were added HBS-P+, 200 μL/well. To wells for regeneration were added 10 mM Glycine-HCl (pH 1.7), 200 μL/well. To wells for activation was added 0.5 mM NiCl₂ solution, 200 μL/well. The plate and biosensor (Biosensor/Ni-NTA: ForteBio Inc., a division of Pall Corporation) were set in the prescribed positions of Octet RED96.
(§3) The measurement was performed at 25 to 30° C.

[2] = target: T2, recombinant monkey TfR extracellular region (Macaca fascicularis) with N-terminal histidine tag (Sino … (Macaca fascicularis (crab-eating …, UniProt Q5RDH6 89-760 (Pongo abelii entry)))); assay: BLI (Octet RED96), His-tagged TfR ECD loaded on Ni-NTA sensor, antibody in solution; monkey TfR
T2 construct: also called r monkey TfR; r monkey TfR-ECD (Histag); not shown: Histidine tag at the N-terminus
T2 chain: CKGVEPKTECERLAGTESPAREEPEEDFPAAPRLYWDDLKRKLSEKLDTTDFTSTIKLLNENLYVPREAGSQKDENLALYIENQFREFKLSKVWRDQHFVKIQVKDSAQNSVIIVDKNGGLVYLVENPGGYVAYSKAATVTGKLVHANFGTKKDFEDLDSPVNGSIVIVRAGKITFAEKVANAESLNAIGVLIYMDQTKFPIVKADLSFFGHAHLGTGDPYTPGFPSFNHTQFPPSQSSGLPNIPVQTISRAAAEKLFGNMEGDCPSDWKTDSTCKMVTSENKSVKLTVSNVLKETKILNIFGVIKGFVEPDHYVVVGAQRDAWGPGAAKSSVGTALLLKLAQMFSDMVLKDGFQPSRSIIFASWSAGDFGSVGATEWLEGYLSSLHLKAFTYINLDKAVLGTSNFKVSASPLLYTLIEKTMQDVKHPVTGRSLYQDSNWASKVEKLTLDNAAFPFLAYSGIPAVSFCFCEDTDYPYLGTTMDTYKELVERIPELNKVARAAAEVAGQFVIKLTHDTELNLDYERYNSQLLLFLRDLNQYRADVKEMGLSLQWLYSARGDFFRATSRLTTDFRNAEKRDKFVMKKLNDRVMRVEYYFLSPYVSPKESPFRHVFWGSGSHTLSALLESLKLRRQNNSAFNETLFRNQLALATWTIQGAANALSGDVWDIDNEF
Experimental: as §1, §2, §3

[3] = target: T2, recombinant monkey TfR extracellular …; assay: BLI (Octet RED96) by the method of Example 7
[4] = target: T1, recombinant human TfR extracellular …; assay: BLI (Octet RED96) by the method of Example 7

B1: mouse anti-hTfR antibody No. 3 (antibody, V domains shown)
VH: EVQLQESGAELVRPGTSVKISCKASGYTFMNYWLGWVKQRPGHGLEWIGDIYPGGDYPTYSEKFKVKAILTADTSSSSVYLHLSSLTSEDSAVYFCARSGNYDEVAYWGQGTLVTVST
VL: DIVMTQTTLSLPVSLGDQASISCRSSQSLVHSNGNTYLHWYLQKPGQSPKLLIYKVSNRFSGVPDRFSGSGSGTDFTLKISRVEAEDLGVFFCSQSTHVPWTFGGGTKLEIKR
notes: Mouse hybridoma antibody; also called anti-hTfR No. 3; antibody of Clone 3 line
- Kd [1]: ≤ 1 pM
- Kd [2]: ≤ 1 pM

B2: humanized anti-hTfR antibody No. 3 (antibody, human IgG4 S228P, kappa, V domains shown)
VH: EVQLVQSGAEVKKPGESLKISCKGSGYSFTNYWLGWVRQMPGKGLEWMGDIYPGGDYPTYSEKFKVQVTISADKSISTAYLQWSSLKASDTAMYYCARSGNYDEVAYWGQGTLVTVSS
VL: DIVMTQTPLSLSVTPGQPASISCRSSQSLVHSNGNTYLHWYLQKPGQSPQLLIYKVSNRFSGVPDRFSGSGSGTDFTLKISRVEAEDVGVYYCSQSTHVPWTFGQGTKVEIKR
notes: The heavy chain is of IgG4 type; also called humanized antibody of anti-hTfR antibody No. 3
- Kd [3]: ~1000 pM
- Kd [4]: ≤ 1 pM
